The numbers were not newly measured in US9770419B2, “Methods and compositions of camel derived products” (priority 2012, dated 2017), which cites them from elsewhere.

Data set [1] relates to colon cancer cell line, HCT-116. The following applies: in vitro.
In data set [2] the test system is HCV (genotype 4a). The note with it: compared with human, bovine and sheep lactoferrin.
The test system of data set [3] is DNA damage.

B1: Camel Lactoferrin: iron containing protein, molecular mass 76-80 kDa, 689 amino acids residues, isolated from camel milk (protein, UniProt Q9TUM0 20-708, looked up)
Lactotransferrin: ASKKSVRWCTTSPAESSKCAQWQRRMKKVRGPSVTCVKKTSRFECIQAISTEKADAVTLDGGLVYDAGLDPYKLRPIAAEVYGTENNPQTHYYAVAIAKKGTNFQLNQLQGLKSCHTGLGRSAGWNIPMGLLRPFLDWTGPPEPLQKAVAKFFSASCVPCVDGKEYPNLCQLCAGTGENKCACSSQEPYFGYSGAFKCLQDGAGDVAFVKDSTVFESLPAKADRDQYELLCPNNTRKPVDAFQECHLARVPSHAVVARSVNGKEDLIWKLLVKAQEKFGRGKPSGFQLFGSPAGQKDLLFKDSALGLLRISSKIDSGLYLGSNYITAIRGLRETAAEVELRRAQVVWCAVGSDEQLKCQEWSRQSNQSVVCATASTTEDCIALVLKGEADALSLDGGYIYIAGKCGLVPVLAESQQSPESSGLDCVHRPVKGYLAVAVVRKANDKITWNSLRGKKSCHTAVDRTAGWNIPMGLLSKNTDSCRFDEFLSQSCAPGSDPRSKLCALCAGNEEGQNKCVPNSSERYYGYTGAFRCLAENVGDVAFVKDVTVLDNTDGKNTEQWAKDLKLGDFELLCLNGTRKPVTEAESCHLAVAPNHAVVSRIDKVAHLEQVLLRQQAHFGRNGRDCPGKFCLFQSKTKNLLFNDNTECLAKLQGKTTYEEYLGPQYVTAIAKLRRCSTSPLLEACAFLMR
As to B1, the “proliferation of HCT-116” value in data set [1] is “inhibit the proliferation”. In addition, in data set [2], the “inhibitory effect on HCV” value is “higher than human, bovine and sheep lactoferrin”. In addition, in data set [3], the DNA damage entry was “inhibit” and the antioxidant activities result is reported as “exhibits antioxidant activities”.
